Experimental data reported in PMC6468313, “Role of Cdc23/Mcm10 in generating the ribonucleotide imprint at the mat1 locus in fission yeast” (Nucleic Acids Research, 2019).

Target: T1, GST-Cdc23 (S. pombe, UniProt O42709 1-593)
T1 construct: Cdc23/Mcm10 of S. pombe; also called GST-tagged Cdc23; source: E. coli Codon Plus, from pGEX2T, induced with 1 mM IPTG for 16 h at 18°C; ultrafilter-concentrated extract (pull-down); partially purified (far-western)
T1 sequence (looked up): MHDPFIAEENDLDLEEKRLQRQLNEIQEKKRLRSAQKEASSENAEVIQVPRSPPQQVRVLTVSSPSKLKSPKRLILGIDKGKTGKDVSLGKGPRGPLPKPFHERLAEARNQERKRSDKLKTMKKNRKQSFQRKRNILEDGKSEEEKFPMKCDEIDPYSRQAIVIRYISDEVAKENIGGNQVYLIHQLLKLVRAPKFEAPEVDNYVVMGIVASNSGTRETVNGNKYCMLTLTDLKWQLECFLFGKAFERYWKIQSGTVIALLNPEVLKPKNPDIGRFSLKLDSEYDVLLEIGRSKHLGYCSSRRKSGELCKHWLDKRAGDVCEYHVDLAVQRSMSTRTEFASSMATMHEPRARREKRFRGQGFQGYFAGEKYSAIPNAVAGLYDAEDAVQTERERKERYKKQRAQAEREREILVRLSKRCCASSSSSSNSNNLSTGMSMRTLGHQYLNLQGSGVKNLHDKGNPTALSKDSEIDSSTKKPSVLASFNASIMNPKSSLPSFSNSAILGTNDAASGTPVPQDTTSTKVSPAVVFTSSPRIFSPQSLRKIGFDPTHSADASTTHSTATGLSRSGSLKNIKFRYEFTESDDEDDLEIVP
Assay: far-Western, overlay or dot blot; partially purified GST and GST-Cdc23 resolved by SDS-PAGE, blotted and progressively renatured; incubated with purified extracts from E. coli expressing MBP, MBP-Polα^+ or MBP-Polα^Swi7-1; probed with anti-Polα
Conditions: both partners purified

B1: MBP-Polα^Swi7-1 (natural protein, S. pombe, UniProt P28040 1-1405, looked up)
chain: MRKRNAGIKPSQRFAELRALRQAGKTRASTYESKENEELYDNVSEEEYRKIVRQRLDEDDFVVDDNGAGYVDNGYDEWDQSHYSDEDDENEKGSSGRKRKKSKNVLAEPNQQIGAFFKANAIQPASRIANRKNNEKEDEFMAEILGSIDQDIPERLSTKKGNRSHTTSNAKRRSQKAASSISTTNVVSSDPKKYIPETVPSTPQPASSLPIPSSPPAALETEENVDSQPMELDEPELPVGSDAPIIDVEESIAMKPLMSHDQVDDTASLSKATISQQPLSPMTPLSSELDVSAFSEINSKIKNVDVPASSYSSPISKVSPSDVTEEDGSLFFFWMDYTEMYGSLCLFGKVYDKATKQYVSCFLKVDGIMRSLYFLPRPSSSSVSEDSIAAQTKDVYDEVANLLSKRGVKEWKSRVSKYKYAFELEDVPRTADYLEVIYSYSYPALPTDLTGSSFSHVFGTNTALFEQFVLSRRVMGPCWLKIQQPNFDAVKNASWCRVEIGCSSPQNISVSFEKNEITSKTPPMTVMSLAFRTLINKEQNKQEVVMISARIFENVDIEKGLPANDMPSYSFSLIRPLKQIFPNGFEKLARQHKSSIFCERSEVSLLNNFLNKVRTYDPDVYFGHDFEMCYSVLLSRLKERKIHNWSSIGRLRRSEWPRSFNRSSQQFVEKQIIAGRLMCDLSNDFGRSMIKAQSWSLSEIVLKELDIKRQDINQEKALQSWTDTAHGLLDYLVHCEIDTFFIAAVAFKIQMLQLSKNLTNIAGNSWARTLTGTRAERNEYILLHEFKKNGYIVPDKQQSIRRHAEAFGAEDGLQEESLGKKKDKYKGGLVFEPQKGLYETCILVMDFNSLYPSIIQEYNICFTTVDRSPSNSDSDDQIPDTPSASANQGIFPRLIANLVERRRQIKGLLKDNSATPTQRLQWDIQQQALKLTANSMYGCLGYTKSRFYARPLAVLITYKGREALMNTKELADQMGLQVIYGDTDSVMLNTNVTDKNHALRIGNEFKEKVNERYSKLEIDIDNVYQRMLLHAKKKYAALQLDSQGKPNLDVKGLDMKRREFCTLAKEASKFCLDQILSGELTETVIENIHSYLMDFSEKMRNGKFPANKFIIFNRLEKNPEDYPNGKTMPFVQVALKKKARGENVRVGDVIPFIIAGSDADGHPADRAYSPQEIMNTNSTLVIDYNYYLSHQILPPIERVIAPIEGTNRARLAECLGLDARKYYSHETSESSAFQRYESTLTDDQCFINVSPLLLKCPSCNATSFSLRSVKSLKETLYANTVECDCGYEYSDFTIILQFSSQLRDFINLYYEGILVCDDSSCGNRTRQMSVYGKRCCNKSCRGSVHFEYNDEQLYNQIKFLLKAVQTTTGATRNGIIRCNAINKNISRIMNKNAREFVDMGLIFSS
notes: catalytic subunit of DNA polymerase α (Swi7) of S. pombe with the swi7-1 mutation G1116E; also called MBP-tagged swi7-1/polα; Polα^7-1; source: E. coli, from pMALp2, induced with 1 mM IPTG for 8 h at 25°C; purified on amylose resin (far-western)
fold weaker interaction than with Polα^+: ~3 fold
